Measurements from patent US7238786B2, “Monoclonal antibody cPAM4” (Immunomedics, Inc., priority 2002, dated 2007).

Key:
Normal Adult Tissues = assay: Immunoperoxidase staining of normal adult tissues with MAb PAM4; assay type: binding, human
From the text: (§1) Normal pancreatic tissue, including ducts, ductules, acini, and islet cells, were negative for staining. A PAM4 based enzyme immunoassay with tissue homogenates as antigens generally supported the immunohistology data (Table 2). The PAM4 epitope was absent from normal pancreas and other nongastrointestinal tissues. In neoplastic tissues, PAM4 was reactive with twenty one out of twenty five ([…]) pancreatic cancers (Table 3). PAM4 reactivity appeared to correlate with the stage of tumor differentiation. […] Generally, poorly differentiated tumors represent less than 10% of all pancreatic cancers.

[1] = test system: Normal Adult Tissue Homogenates; assay: PAM4 based enzyme immunoassay with tissue homogenates as antigens; assay type: binding, human
From the text: as §1

Pancreatic Tumors = assay: Immunohistochemical reactivity of monoclonal antibodies with pancreatic tumors; assay type: binding, human; parameters: key to Immunohistochemical reactivity: −: Negative; +: 5–20% of tissue is stained; ++: 21–50% of tissue is stained; +++: >50% of tissue is stained
From the text: as §1
(§2) These studies have shown the PAM4 reactivity and tissue distribution (both normal and cancer) to be unlike that reported for CA19.9, DUPAN2, SPAN1, Nd2, B72.3, and the Lewis antigens. […] When compared to CA19.9, DUPAN2, and aLe^a, PAM4 appears to be more restricted in its tissue distribution and it is reactive with a higher percentage of pancreatic tumors. Moreover, it gives a greater overall intensity of reaction at equivalent concentrations and is reactive with a higher percentage of cells within the tumors. […] Although it is recognized that specificity is dependent upon the type of assay employed and the range and number of tissues examined, the ability of PAM4 to discriminate between normal and neoplastic pancreatic tissue, its ability to react with a large percentage of the cancer specimens, as well as the high intensity of the reactions, were important rationales for pursuing developmental studies of clinical application.

tumors = assay: Clinical studies with PAM4 MAb: targeting and dosimetry; assay type: in vivo, human; settings: patients
Neoplastic Tissues = assay: Immunoperoxidase staining of neoplastic tissues with MAb PAM4; assay type: binding, human
From the text: as §1

CaPan1 = assay: Biodistribution and dosimetry of radiolabeled PAM4, CaPan1 xenograft; settings: in vivo
Procedure: Initial biodistribution studies of PAM4 were carried out in a series of four different xenografted human pancreatic tumors covering the range of expected differentiation. […] The biodistribution data were used to estimate potential radiation doses to the tumor of 12,230; 10,684; 6,835; and 15,843 cGy/mCi of injected dose to AsPc1, BxPc3, Hs766T and CaPan1, respectively. With an actual maximum tolerated dose (MTD) of 0.7 mCi, PAM4 could provide substantial rad dose to each of the xenografted tumor models. […] Potential radiation doses to the blood from PAM4 were 1.4-4.4 fold lower than from Ag8. […] Importantly, potential radiation doses to non-tumor tissues were minimal.
The biodistribution of PAM4 was compared with an anti-CEA antibody, MN14, using the CaPan1 tumor model. The concentration of PAM4 within the tumor was much greater than the MN14 at early timepoints, yielding tumor:blood ratios at day three of 12.7±2.3 for PAM4 compared to 2.7±1.9 for MN14. […] This was due to a rapid clearance of PAM4 from the tumor, such that at later timepoints similar concentrations of the two antibodies were present within the tumors. A rapid clearance of PAM4 from the tumor was also noted in the BxPc3 and Hs766T but not AsPc1 tumor models. […] Results from studies on the metabolism of PAM4, indicate that after initial binding to the tumor cell, antibody is rapidly released, possibly being catabolized or being shed as an antigen:antibody complex. This might have had unfavorable implications for the use of the antibody in patients except that the blood clearance is also very rapid.
This type of splenic targeting has been observed in the clinical application of the anti-mucin antibodies B72.3 and CC49. […] The latter would require the presence of immune complexes in the blood; however, these were not observed when specimens as early as five minutes and as late as seven days were examined by gel filtration (HPLC, GF-250 column); radiolabeled antibody eluted as native material. The former explanation seems more likely in view of the fact that the CaPan1 tumor produced large quantities of PAM4-reactive antigen, 100 to 1000-fold higher than for the other tumor cell lines examined. […] In any event, splenic targeting can be overcome by increasing the protein dose to 10 ug from the original 2 ug dose. A greater amount of the splenic entrapped antigen presumably was complexed with unlabeled PAM4 rather than radiolabeled antibody. Increasing the protein dose had no adverse effect upon targeting of PAM4 to the tumor or nontumor tissues.

[2] = test system: chronic pancreatitis specimens; assay: Immunohistochemistry of chronic pancreatitis specimens; assay type: binding, human; settings: twelve specimens
From the text: as §2

PAM4 antigen = assay: Competition with ^131I-mPAM4 binding to the antigen (FIG. 3); settings: competing with ^131I-mPAM4 binding to the antigen
From the text: A chimeric antibody is a recombinant protein that contains the variable domains including the complementarity determining regions (CDRs) of an antibody derived from one species while the constant domains of the antibody molecule is derived from those of a human antibody.

B1: PAM4: murine MUC1 monoclonal antibody developed with pancreatic cancer mucin from the xenografted RIP-1 human pancreatic carcinoma as immunogen (antibody, V domains shown)
VL: DIVMTQSPAIMSASPGEKVTMTCSASSSVSSSYLYWYQQKPGSSPKLWIYSTSNLASGVPARFSGSGSGTSYSLTISSMEAEDAASYFCHQWNRYPYTFGGGTKLEIK
VH: EVQLQESGPELVKPGASVKMSCKASGYTFPSYVLHWVKQKPGQGLEWIGYINPYNDGTQYNEKFKGKATLTSDKSSSTAYMELSRLTSEDSAVYYCARGFGGSYGFAYWGQGTLITVSA
In the case of B1, the “Staining Reaction” value (Normal Adult Tissues; Colon) is reported as “+ goblet cells”, the “Staining Reaction” value (Normal Adult Tissues; Duodenum) is reported as “+ goblet cells” and the “Staining Reaction” value (Normal Adult Tissues; Ileum) is reported as “+ goblet cells”. For the same molecule, the “Staining Reaction” value (Normal Adult Tissues; Jejunum) was “+ goblet cells”, the “Staining Reaction” value (Normal Adult Tissues; Stomach) was “+ mucus secreting cells” and the “PAM4 reactivity by EIA” value ([1]; Adrenal, mean from two autopsy specimens) was 1.3 ug/g tissues. For the same molecule, the “PAM4 reactivity by EIA” value ([1]; Bladder, mean from two autopsy specimens) was 4.9 ug/g tissues, the “PAM4 reactivity by EIA” value ([1]; CaPan1 Pancreatic Tumor) was 569 ug/g tissues and the “PAM4 reactivity by EIA” value ([1]; Colon, mean from two autopsy specimens) was 74.5 ug/g tissues. For the same molecule, the “PAM4 reactivity by EIA” value ([1]; Duodenum, mean from two autopsy specimens) was 44.7 ug/g tissues, the “PAM4 reactivity by EIA” value ([1]; Esophagus, mean from two autopsy specimens) was 8.1 ug/g tissues and the “PAM4 reactivity by EIA” value ([1]; Gallbladder, mean from two autopsy specimens) was 5.6 ug/g tissues. For the same molecule, the “PAM4 reactivity by EIA” value ([1]; Heart, mean from two autopsy specimens) was 3.7 ug/g tissues, the “PAM4 reactivity by EIA” value ([1]; Jejunum, mean from two autopsy specimens) was 60.6 ug/g tissues and the “PAM4 reactivity by EIA” value ([1]; Kidney, mean from two autopsy specimens) was 6.6 ug/g tissues. The “PAM4 reactivity by EIA” value ([1]; Liver, mean from two autopsy specimens) was 0.0 ug/g tissues, the “PAM4 reactivity by EIA” value ([1]; Pancreas, mean from two autopsy specimens) was 6.4 ug/g tissues and the “PAM4 reactivity by EIA” value ([1]; Spleen, mean from two autopsy specimens) was 3.4 ug/g tissues. For the same molecule, the “PAM4 reactivity by EIA” value ([1]; Stomach, mean from two autopsy specimens) was 61.3 ug/g tissues, the “PAM4 reactivity by EIA” value ([1]; Testes, mean from two autopsy specimens) was 3.9 ug/g tissues and the “PAM4 reactivity by EIA” value ([1]; Thyroid, mean from two autopsy specimens) was 3.5 ug/g tissues. The “PAM4 reactivity by EIA” value ([1]; Ureter, mean from two autopsy specimens) was 2.6 ug/g tissues, the “Immunohistochemical reactivity, TOTAL (positive/examined)” value (Pancreatic Tumors; all pancreatic tumors) was 21/25 and the Immunohistochemical reactivity (Pancreatic Tumors; pancreatic tumor 1, differentiation W) was “+++ (+++: >50% of tissue is stained)”. The Immunohistochemical reactivity (Pancreatic Tumors; pancreatic tumor 2, differentiation M) was “++ (++: 21–50% of tissue is stained)”, the Immunohistochemical reactivity (Pancreatic Tumors; pancreatic tumor 3, differentiation M) was “+ (+: 5–20% of tissue is stained)” and the Immunohistochemical reactivity (Pancreatic Tumors; pancreatic tumor 4, differentiation M) was “+++ (+++: >50% of tissue is stained)”. For the same molecule, the Immunohistochemical reactivity (Pancreatic Tumors; pancreatic tumor 5, differentiation M) was “++ (++: 21–50% of tissue is stained)”, the Immunohistochemical reactivity (Pancreatic Tumors; pancreatic tumor 6, differentiation M) was “+ (+: 5–20% of tissue is stained)” and the Immunohistochemical reactivity (Pancreatic Tumors; pancreatic tumor 7, differentiation M, metastatic tissue) was “+++ (+++: >50% of tissue is stained)”. For the same molecule, the Immunohistochemical reactivity (Pancreatic Tumors; pancreatic tumor 8, differentiation M) was “+ (+: 5–20% of tissue is stained)”, the Immunohistochemical reactivity (Pancreatic Tumors; pancreatic tumor 9, differentiation M) was “++ (++: 21–50% of tissue is stained)” and the Immunohistochemical reactivity (Pancreatic Tumors; pancreatic tumor 10, differentiation M, metastatic tissue) was “++ (++: 21–50% of tissue is stained)”. The Immunohistochemical reactivity (Pancreatic Tumors; pancreatic tumor 11, differentiation M) was “++ (++: 21–50% of tissue is stained)”, the Immunohistochemical reactivity (Pancreatic Tumors; pancreatic tumor 12, differentiation M) was “++ (++: 21–50% of tissue is stained)” and the Immunohistochemical reactivity (Pancreatic Tumors; pancreatic tumor 13, differentiation M) was “+ (+: 5–20% of tissue is stained)”. For the same molecule, the Immunohistochemical reactivity (Pancreatic Tumors; pancreatic tumor 14, differentiation M) was “++ (++: 21–50% of tissue is stained)”, the Immunohistochemical reactivity (Pancreatic Tumors; pancreatic tumor 15, differentiation M) was “+++ (+++: >50% of tissue is stained)” and the Immunohistochemical reactivity (Pancreatic Tumors; pancreatic tumor 16, differentiation M) was “+ (+: 5–20% of tissue is stained)”. The Immunohistochemical reactivity (Pancreatic Tumors; pancreatic tumor 17, differentiation M) was “−”, the Immunohistochemical reactivity (Pancreatic Tumors; pancreatic tumor 18, differentiation M) was “++ (++: 21–50% of tissue is stained)” and the Immunohistochemical reactivity (Pancreatic Tumors; pancreatic tumor 19, differentiation M) was “+++ (+++: >50% of tissue is stained)”. The Immunohistochemical reactivity (Pancreatic Tumors; pancreatic tumor 20, differentiation M) was “+ (+: 5–20% of tissue is stained)”, the Immunohistochemical reactivity (Pancreatic Tumors; pancreatic tumor 21, differentiation M) was “+++ (+++: >50% of tissue is stained)” and the Immunohistochemical reactivity (Pancreatic Tumors; pancreatic tumor 22, differentiation P) was “+ (+: 5–20% of tissue is stained)”. For the same molecule, the Immunohistochemical reactivity (Pancreatic Tumors; pancreatic tumor 23, differentiation P) was “−”, the Immunohistochemical reactivity (Pancreatic Tumors; pancreatic tumor 24, differentiation P) was “−” and the Immunohistochemical reactivity (Pancreatic Tumors; pancreatic tumor 25, differentiation P) was “−”. For the same molecule, the tumors positive (Pancreatic Tumors; poorly differentiated pancreatic tumors) was “one out of four”, the pancreatic cancers reactive (Pancreatic Tumors; twenty one out of twenty five pancreatic cancers) was 85% and the tumors positive (Pancreatic Tumors; well and moderately differentiated pancreatic tumors) was “twenty out of twenty one”. The targeting of lesions (tumors) was “a majority of the lesions were targeted”, the “uptake in normal tissues” value (tumors) was “no indication of uptake in normal tissues” and the Positive/Total (Neoplastic Tissues; Breast neoplastic tissue) was 0/30. For the same molecule, the Positive/Total (Neoplastic Tissues; Colon neoplastic tissue) was 10/26, the Positive/Total (Neoplastic Tissues; Kidney neoplastic tissue) was 0/4 and the Positive/Total (Neoplastic Tissues; Liver neoplastic tissue) was 0/10. For the same molecule, the Positive/Total (Neoplastic Tissues; Lung neoplastic tissue) was 1/15, the Positive/Total (Neoplastic Tissues; Ovarian neoplastic tissue) was 0/10 and the Positive/Total (Neoplastic Tissues; Pancreas neoplastic tissue) was 21/25. For the same molecule, the Positive/Total (Neoplastic Tissues; Prostate neoplastic tissue) was 0/4, the Positive/Total (Neoplastic Tissues; Stomach neoplastic tissue) was 1/5 and the “specimens reactive with PAM4 by immunohistochemistry” value (Neoplastic Tissues; colorectal cancer specimens) was 40%. The “concentration of radiolabeled PAM4 within the CaPan1 tumor on increasing protein dose” value (CaPan1) was “more than doubled”, the “dose to the tumor, fold higher than MN14” value (CaPan1) was 3.2 fold and the splenic uptake (CaPan1) was 3.1-7.5 % ID/g. For the same molecule, the “tumor:blood ratio” value (CaPan1) was 12.7±2.3 and the “reactivity with chronic pancreatitis specimens” value [2] was “only weakly reactive with three out of twelve”.

B2: cPAM4: chimeric PAM4: murine PAM4 variable domains with human light and heavy chain constant regions (antibody, V domains shown)
VL: DIQLTQSPAIMSASPGEKVTMTCSASSSVSSSYLYWYQQKPGSSPKLWIYSTSNLASGVPARFSGSGSGTSYSLTISSMEAEDAASYFCHQWNRYPYTFGGGTKLEIKR
VH: QVQLQESGPELVKPGASVKMSCKASGYTFPSYVLHWVKQKPGQGLEWIGYINPYNDGTQYNEKFKGKATLTSDKSSSTAYMELSRLTSEDSAVYYCARGFGGSYGFAYWGQGTLITVSA
B2 was tested, and the “binding activity compared to murine PAM4” value (PAM4 antigen) was “comparable binding activity”.
